B1: anti-TIM3 antibody Tim3_0022 (antibody, V domains shown)
VH: EVQLQESGPSLVKPSQTLSLTCSVTGDSIASAYWNWIRKFPGNKLEYMGYINYSGSTYYNPSLKSRISITRDTSQNQYYLQLNSVTTEDTATYYCVTGDYFDYWGRGTTLTVSS
VL: DIQMTQSPSSLSAYLGGKVTITCKARQDVRKNIGWYQHKPGKGPRLLIWYTSTLQSGIPSRFSGSGSGRDYSFNINNLEPEDIATYYCLQYDNLPFTFGTGTKLEIR
notes: Mouse monoclonal from hybridoma; also called <TIM-3> Ab(022)
B2: Fab-PE24 construct of anti-TIM3 antibody Tim3_0022 (Fab, V domains shown)
VH: B1 VH
VL: B1 VL
B3: anti-TIM3 antibody Tim3_0021 (antibody, V domains shown)
VH: QVQLQQSGPQLVRPGASVQISCKASGYSFTSYLLHWLKQRPGQGLEWIGMIDPSDSETRLNQKFKDKATLTVDKSSSTAYMQLSSPTSEDSAVYYCARDGYYAWYYFDCWGQGTTLTVSS
VL: DIVLTQSPATLSVTPGDRVSLSCRASQSIGNNLHWYQQKSHESPRLLIKYASHSISGIPSKFSGTGSGTDFTLSFNSVETEDFGMYFCQQSNSWPLTFGAGTKLELK
notes: Mouse monoclonal from hybridoma
B4: Fab-PE24 construct of anti-TIM3 antibody Tim3_0016 (Fab, V domains shown)
VH: QVTLKESGPGILQPSQTLRLTCSFSGFSLSTSGMSVGWIRQPSGKGLEWLAHIWLNDDVFFNPALKSRLTISKDTSNNQVFLQIASVVTADTATYYCVRANGYLYALDYWGQGTSVTVSS
VL: QIVLTQSPAIMSASPGQKVTITCSASSSVNYTQWYQQKLGSSPKLWIYDAFKLAPGVPARFSGSGTGTSYSLTISSMEAEDAASYFCHQWSSYPWTFGGGTKLEIK

Assays:
[1] = target: monomeric cyno Tim3-ECD (cynomolgus); assay: SPR, Ab captured on anti-mouse IgG, 25 C
[2] = target: T1, human TIM3, full length, on cells (human, UniProt Q8TDQ0 22-301); assay: FACS, human CD14+ monocytes, donor1, 10 µg/ml
T1 construct: CHO-K1 cells were transfected with a plasmid for full-length human Tim3; other cells carry endogenous TIM3; also called huTIM-3; CHO-Tim3
From the text: (§1) CD14+ Monocytes were isolated from anticoagulated peripheral blood of healthy donors by density gradient centrifugation using Ficoll-Paque (GE Healthcare) (see General Protocols in the User Manuals or visit www.miltenyibiotec.com/protocols) and subsequent positive selection via CD14 MicroBeads. First the CD14+ cells are magnetically labeled with CD14 MicroBeads. Then the cell suspension is loaded onto a MACS® Column which is placed in the magnetic field of a MACS Separator. The magnetically labeled CD14+ cells are retained in the column. The unlabeled cells run through, this cell fraction is depleted of CD14+ cells. After removal of the column from the magnetic field, the magnetically retained CD14+ cells can be eluted as the positively selected cell fraction. After centrifugation at 200×g for 10 min at room temperature the monocytes were harvested and used directly in binding assay or resuspended in freezing medium (10% DMSO, 90% FCS) at 1.0E+07 cells/ml and stored in liquid nitrogen.
(§2) After washing and centrifugation MFI signals of stained cells were analyzed by BD Biosciences FACSCanto flow cytometer.

[3] = target: T2, cynomolgus TIM-3 on isolated cyno CD14+ monocytes (cynomolgus monkey, UniProt A0A2K5U3G7 22-294); assay: FACS, cyno CD14+ monocytes, cyno2 (17435M)
T2 construct: whole, on cells; also called cyno monocytes expressing TIM-3
T2 sequence: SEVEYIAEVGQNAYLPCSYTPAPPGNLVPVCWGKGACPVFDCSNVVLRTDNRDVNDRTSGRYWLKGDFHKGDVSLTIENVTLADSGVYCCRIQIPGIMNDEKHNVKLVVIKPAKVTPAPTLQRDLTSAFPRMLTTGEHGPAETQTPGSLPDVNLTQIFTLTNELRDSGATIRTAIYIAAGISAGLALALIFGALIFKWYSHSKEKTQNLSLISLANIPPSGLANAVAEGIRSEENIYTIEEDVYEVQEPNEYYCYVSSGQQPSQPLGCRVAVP
From the text: (§3) CD14+ Monocytes were isolated from cynomolgus monkey anticoagulated peripheral blood (Covance) by density gradient centrifugation using Ficoll-Paque (GE Healthcare) (see General Protocols in the User Manuals or visit www.miltenyibiotec.com/protocols) and subsequent positive selection via NHP CD14 MicroBeads. First the CD14+ cells are magnetically labeled with CD14 MicroBeads. Then the cell suspension is loaded onto a MACS® Column which is placed in the magnetic field of a MACS Separator. The magnetically labeled CD14+ cells are retained in the column. The unlabeled cells run through, this cell fraction is depleted of CD14+ cells. After removal of the column from the magnetic field, the magnetically retained CD14+ cells can be eluted as the positively selected cell fraction. After centrifugation at 200×g for 10 min at room temperature the monocytes were harvested and used directly in binding assay or resuspended in freezing medium (10% DMSO, 90% FCS) at 1.0E+07 cells/ml and stored in liquid nitrogen.
as §2

[4] = target: T1, human TIM3, full length, on cells; assay: FACS, human CD14+ monocytes, donor2, 10 µg/ml
From the text: as §1, §2

monomeric human Tim3-ECD [5] = target: T3, monomeric human Tim3-ECD (human, UniProt Q8TDQ0 22-202); assay: SPR, Ab captured on anti-mouse IgG, 25 C
T3 construct: also called huTim3; hu Tim3-ECD
Method: (§4) Therefore, an anti-mouse IgG was immobilized by amine coupling to the surface of a (BIAcore) CMS sensor chip. […] The sensor chip surface was regenerated after each analysis cycle. The equilibrium constant KD was finally gained by fitting the data to a 1:1 Langmuir interaction model.
(§5) The samples were injected for 30 seconds with a concentration of 200 μg/ml and bound to the spots 1 and 5 of each flow cell, allowing the measurement of eight samples in parallel. […] The flow rate was set to 30 μl/min for the whole run.
(§6) Finally the double referenced data was fitted to a 1:1 Langmuir interaction model with the BIAcore B4000 Evaluation Software.

[6] = target: T1, human TIM3, full length, on cells; assay: FACS, human CD14+ monocytes, donor3, 10 µg/ml
From the text: as §1, §2

[7] = target: T2, cynomolgus TIM-3 on isolated cyno CD14+ …; assay: FACS, cyno CD14+ monocytes, cyno3 (30085F)
From the text: as §3, §2

[8] = target: T2, cynomolgus TIM-3 on isolated cyno CD14+ …; assay: FACS, cyno CD14+ monocytes, cyno1 (16719M)
From the text: as §3, §2

[9] = target: T1, human TIM3, full length, on cells; assay: cell-based or functional assay
[10] = target: T1, human TIM3, full length, on cells; assay: cell-based or functional assay; remark: listed apart in the source
[11] = target: T1, human TIM3, full length, on cells; assay: cell ELISA, CHO-K1 with full-length human Tim3
Method: Then the reaction was stopped by addition of 25 μl/well 1N HCL-solution.

monomeric human Tim3-ECD [12] = target: T3, monomeric human Tim3-ECD; assay: SPR, Ab captured on anti-mouse IgG, monomeric Tim3-ECD
[13] = target: T4, Fc-tagged human Tim3-ECD dimer (human, UniProt Q8TDQ0 22-202); assay: SPR, Ab captured on anti-mouse IgG, dimeric Tim3-ECD-Fc
T4 construct: also called huTim3Fc; huFc fused dimeric human Tim3-ECD
Method: as §4, §5, §6

[14] = target: T1, human TIM3, full length, on cells; assay: cell-based or functional assay; remark: listed apart in the source
Tim3-ECD-His-Biotin = target: T5, Tim3-ECD-His-Biotin (human, UniProt Q8TDQ0 22-202, biotinylated with BirA Ligase); assay: ELISA on Tim3-ECD-His-Biotin
T5 construct: Coated on streptavidin plates; also called human Tim3 (ELISA); Biochem Human
Method: After washing (3×90 μl/well with PBST-buffer) 25 μl/well sheep-anti-mouse-POD (GE NA9310V) was added in 1:9000 dilution and incubated at RT for 1 h while shaking at 400 rpm rotation. After washing (4×90 μl/well with PBST-buffer) 25 TMB substrate (Calbiochem, #CL07) was added and incubated until OD 1.5-2.5. Then the reaction was stopped by addition of 25 μl/well 1N HCL-solution.

[15] = target: T4, Fc-tagged human Tim3-ECD dimer; assay: SPR, Ab captured on anti-mouse IgG, 25 C

Binder	Specific Binding [MFI] [2]	Specific Binding [MFI] [3]	Specific Binding [MFI] [4]	Kd (monomeric human Tim3-ECD [5])	Specific Binding [MFI] [6]	Specific Binding [MFI] [7]	Specific Binding [MFI] [8]	cytotoxicity IC50, CMK [9]	cytotoxicity IC50, Karpas-299 [9]	cytotoxicity IC50, MOLM-13 [9]	cytotoxicity IC50, TF-1 [9]	cytotoxicity IC50, D1 AML CD34+ PB0136 cells [10]	cytotoxicity IC50, D3 AML CD34+ PB0135 cells [10]	other results
B1	1470 MFI	134 MFI	1110 MFI	126 nM	1240 MFI	138 MFI	115 MFI	–	–	–	–	–	–	Kd [1]: 28.4 nM
B2	–	–	–	–	–	–	–	255 nM	10 nM	579 nM	299 nM	> 691 nM	> 691 nM	–
B3	1130 MFI	473 MFI	951 MFI	204 nM	1200 MFI	399 MFI	348 MFI	–	–	–	–	–	–	EC50 [11]: 0.073 µg/mL; Kd (monomeric human Tim3-ECD [12]): 204 nM; Kd [13]: 4.1 nM; IFNgamma release in MLR, % of rec hu IL-2 control, 1 µg/ml [14]: 101%; IFNgamma release in MLR, % of rec hu IL-2 control, 10 µg/ml [14]: 108%; IFNgamma release in MLR, % of rec hu IL-2 control, 40 µg/ml [14]: 112%; EC50 (Tim3-ECD-His-Biotin): 0.047 µg/mL; Kd [15]: 4.07 nM
B4	–	–	–	–	–	–	–	225 nM	4 nM	459 nM	534 nM	> 691 nM	> 691 nM	–

From patent publication US20180072804A1 (Hoffmann-La Roche, published 2018)
